Assay: Thioflavin T fluorescence of protein solutions
Assay type: physicochemical
Conditions: initial, compared with native β2GPI purified from plasma
Description: Fluorescence of ThT—protein/peptide adducts was measured as follows. […] Fluorescence was measured at 485 nm upon excitation at 435 nm. Background signals from buffer, buffer with ThT and protein/peptide solution without ThT were subtracted from corresponding measurements with protein solution incubated with ThT. Regularly, fluorescence of Aβ was used as a positive control, and fluorescence of FP10, a non-amyloid fibrin fragment^16, was used as a negative control. Fluorescence was measured in triplicate on a Hitachi F-4500 fluorescence spectrophotometer (Ltd., Tokyo, Japan).
Formulated protein therapeutics were obtained from the local hospital pharmacy and were used as supplied by the manufacturers. […] Lyophilized therapeutics were dissolved according to the manufacturers recommendations. GH, zinc-insulin, Cealb and gelatin were stored at −20, 4, room temperature, 37 and 65° C. Other protein therapeutics were only kept at 4° C., and assayed for the presence of cross-β structure at shown time points. Enhancement in fluorescence of ThT and Congo red was measured with all formulated protein therapeutics. […]
ThT fluorescence of β2GPI was measured as follows. […] In the ThT fluorescence assay, fluorescence of β2GPI in buffer, of CL or DXS500k in buffer, of buffer and ThT alone, and of β2GPI-CL adducts and β2GPI-DXS500k adducts, with or without ThT, was recorded as described above (section ThT fluorescence). In addition, TEM images were recorded with CL, β2GPI from human plasma, with or without CL, and with recombinant β2GPI, as described^5.
To prepare structurally altered ovalbumin (OVA) with amyloid cross-β structures, purified OVA (Sigma, A-7641, lot 071k7094) was heated to 85° C. […] Native OVA (nOVA) and heat-denatured OVA (dOVA) were tested in the ThT fluorescence assay and in the Plg-activation assay. In the fluorescence assay and in the Plg-activation assay, 25 and 100 μg ml^−1 nOVA and dOVA were tested, respectively. […]
MSA (#126674, Calbiochem) was dissolved in 8 M urea, 100 mM Tris-HCl pH 8.2, at 10 mg ml^−1 final concentration. […] The presence of aggregates or fibrils was analyzed using TEM. […]

B1: recombinant β2GPI: recombinant human β2-glycoprotein I made using insect cells (protein)
chain: GRTCPKPDDLPFSTVVPLKTFYEPGEEITYSCKPGYVSRGGMRKFICPLTGLWPINTLKCTPRVCPFAGILENGAVRYTTFEYPNTISFSCNTGFYLNGADSAKCTEEGKWSPELPVCAPIICPPPSIPTFATLRVYKPSAGNNSLYRDTAVFECLPQHAMFGNDTITCTTHGNWTKLPECREVKCPFPSRPDNGFVNYPAKPTLYYKDKATFGCHDGYSLDGPEEIECTKLGNWSAMPSCKASCKVPVKKATVVYQGERVKIQEKFKNGMLHGDKVSFFCKNKEKKCSYTEDAQCIDGTIEVPKCFKEHSSLAFWKTDASDVKPC
ThT fluorescence signal: higher ThT fluorescence signal than native β2GPI purified from plasma

Reference: patent US20080220446A1, “Method for Detecting and/or Removing Protein and/or Peptide Comprising a Cross-Beta Structure From an Aqueous Solution Comprising a Protein” (priority 2005, published 2008)
